Measurements taken from patent publication US20200087416A1 (Innovent, published 2020).

Experiments:
[1] = biological target: T1, human PCSK9 (PCSK9 antigen, SEQ ID NO. 53) (human, UniProt A8T644 31-152; Q8NBP7 153-692, Biotin-labelled on amines in the MSD-SET and sorting experiments; positions not given.); experiment: flow cytometry, PCSK9 left on CHO-LDLR cells (anti-His-FITC) after premix with 1000 nM antibody
T1 construct: Biotin-labelled in MSD-SET; also called PCSK9-WT; PCSK9 protein

[2] = biological target: T1, human PCSK9 (PCSK9 antigen, SEQ ID NO. …); experiment: BLI (ForteBio), IgG on AHQ sensor, 100 nM antigen
[3] = biological target: T2, murine PCSK-9 (murine, UniProt Q80W65 35-694); experiment: BLI (ForteBio), IgG on AHQ sensor, 100 nM antigen
T2 construct: also called mouse PCSK9

[4] = biological target: T1, human PCSK9 (PCSK9 antigen, SEQ ID NO. …); experiment: flow cytometry, PCSK9 left on CHO-LDLR cells (anti-His-FITC) after premix with 0.1 nM antibody
[5] = biological target: T1, human PCSK9 (PCSK9 antigen, SEQ ID NO. …); experiment: cell-based or functional assay
[6] = biological target: T1, human PCSK9 (PCSK9 antigen, SEQ ID NO. …); experiment: flow cytometry, PCSK9 left on CHO-LDLR cells (anti-His-FITC) after premix with 10 nM antibody
[7] = biological target: T1, human PCSK9 (PCSK9 antigen, SEQ ID NO. …); experiment: flow cytometry, PCSK9 left on CHO-LDLR cells (anti-His-FITC) after premix with 100 nM antibody
[8] = biological target: T1, human PCSK9 (PCSK9 antigen, SEQ ID NO. …); experiment: flow cytometry, PCSK9 left on CHO-LDLR cells (anti-His-FITC) after premix with 1 nM antibody
[9] = biological target: T1, human PCSK9 (PCSK9 antigen, SEQ ID NO. …); experiment: cell-based or functional assay; remark: listed apart in the source
[10] = biological target: T1, human PCSK9 (PCSK9 antigen, SEQ ID NO. …); experiment: MSD-SET, Fab with biotin-PCSK9 in solution, IgG on plate, pH 7.4
[11] = biological target: T2, murine PCSK-9; experiment: as above
[12] = biological target: T1, human PCSK9 (PCSK9 antigen, SEQ ID NO. …); experiment: MSD-SET, Fab with biotin-PCSK9 in solution, IgG on plate, pH 6.0

B1: ADI-10085 (antibody, human IgG2, kappa, V domains shown)
VH: QLQLQESGPGLVKPSETLSLTCTVSGGSIVSSSYYWAWIRQPPGKGLEWIGSINYKGSTYYNPSLKSRVTISVDTSKNQFSLKLSSVTAADTAVYYCARENSGVVPAAGPNWFGPWGQGTLVTVSS
VL: EIVLTQSPATLSLSPGERATLSCRASQSVSSYLAWYQQKPGQAPRLLIYDASNRATGIPARFSGSGSGTDFTLTISSLEPEDFAVYYCQQRRNWFTFGGGTKVEIKR
notes: IgG
Fluorescence Signal Value [1]: 5700
Kd [2]: 295 pM
Kd [3]: 544 pM
Fluorescence Signal Value [4]: 10400
fluorescence of BODIPY-LDL in HepG2 cells against no anti-PCSK9 antibody [5]: ~2 times
Fluorescence Signal Value [6]: 5680
Fluorescence Signal Value [7]: 5090
Fluorescence Signal Value [8]: 8910
BODIPY-LDL uptake by HepG2 cells, fluorescence, 4.2 nM, replicate 1 [9]: 0.423
BODIPY-LDL uptake by HepG2 cells, fluorescence, 4.2 nM, replicate 2 [9]: 0.435
BODIPY-LDL uptake by HepG2 cells, fluorescence, 16.8 nM, replicate 1 [9]: 0.78
BODIPY-LDL uptake by HepG2 cells, fluorescence, 16.8 nM, replicate 2 [9]: 0.742
BODIPY-LDL uptake by HepG2 cells, fluorescence, 66.7 nM, replicate 1 [9]: 0.749
BODIPY-LDL uptake by HepG2 cells, fluorescence, 66.7 nM, replicate 2 [9]: 0.797

B2: ADI-10087 (antibody, human IgG2, kappa, V domains shown)
VH: QLQLQESGPGLVKPSETLSLTCTVSGGSISSASYYWSWIRQPPGKGLEWIGSINYRGSTYYNPSLKSRVTISVDTSKNQFSLKLSSVTAADTAVYYCARENSGVVPAAGPNWFGPWGQGTLVTVSS
VL: EIVLTQSPATLSLSPGERATLSCRASQSVSSYLAWYQQKPGQAPRLLIYDASNRATGIPARFSGSGSGTDFTLTISSLEPEDFAVYYCQQRRNWFTFGGGTKVEIKR
notes: also called anti-PCSK antibody of the invention
Fluorescence Signal Value [1]: 5090
Kd [2]: 296 pM
Kd [3]: 558 pM
Fluorescence Signal Value [4]: 6860
fluorescence of BODIPY-LDL in HepG2 cells against no anti-PCSK9 antibody [5]: ~2 times
Fluorescence Signal Value [6]: 5740
Fluorescence Signal Value [7]: 5260
Fluorescence Signal Value [8]: 6480
BODIPY-LDL uptake by HepG2 cells, fluorescence, 4.2 nM, replicate 1 [9]: 0.37
BODIPY-LDL uptake by HepG2 cells, fluorescence, 4.2 nM, replicate 2 [9]: 0.403
BODIPY-LDL uptake by HepG2 cells, fluorescence, 16.8 nM, replicate 1 [9]: 0.72
BODIPY-LDL uptake by HepG2 cells, fluorescence, 16.8 nM, replicate 2 [9]: 0.683
BODIPY-LDL uptake by HepG2 cells, fluorescence, 66.7 nM, replicate 1 [9]: 0.758
BODIPY-LDL uptake by HepG2 cells, fluorescence, 66.7 nM, replicate 2 [9]: 0.775

B3: Evolocumab (antibody, V domains shown)
VH: QVQLVQSGAEVKKPGASVKVSCKASGYTLTSYGISWVRQAPGQGLEWMGWVSFYNGNTNYAQKLQGRGTMTTDPSTSTAYMELRSLRSDDTAVYYCARGYGMDVWGQGTTVTVSS
VL: QSALTQPASVSGSPGQSITISCTGTSSDVGGYNSVSWYQQHPGKAPKLMIYEVSNRPSGVSNRFSGSKSGNTASLTISGLQAEDEADYYCNSYTSTSMVFGGGTKLTVL
Fluorescence Signal Value [1]: 4800
Kd [2]: 1030 pM
Kd [3]: 114000 pM
Fluorescence Signal Value [4]: 6990
Fluorescence Signal Value [6]: 5780
Fluorescence Signal Value [7]: 5100
Fluorescence Signal Value [8]: 6810
BODIPY-LDL uptake by HepG2 cells, fluorescence, 4.2 nM, replicate 1 [9]: 0.351
BODIPY-LDL uptake by HepG2 cells, fluorescence, 4.2 nM, replicate 2 [9]: 0.36
BODIPY-LDL uptake by HepG2 cells, fluorescence, 16.8 nM, replicate 1 [9]: 0.355
BODIPY-LDL uptake by HepG2 cells, fluorescence, 16.8 nM, replicate 2 [9]: 0.363
BODIPY-LDL uptake by HepG2 cells, fluorescence, 66.7 nM, replicate 1 [9]: 0.724
BODIPY-LDL uptake by HepG2 cells, fluorescence, 66.7 nM, replicate 2 [9]: 0.778

B4: ADI-10088 Fab (Fab, V domains shown)
VH: QLQLQESGPGLVKPSETLSLTCTVSGGSIGSSSYYWAWIRQPPGKGLEWIGSINYRGSTYYNPSLKSRVTISVDTSKNQFSLKLSSVTAADTAVYYCARENSGVVPAAGPNWFDPWGQGTLVTVSS
VL: EIVLTQSPATLSLSPGERATLSCRASQSVSSYLAWYQQKPGQAPRLLIYDASNRATGIPARFSGSGSGTDFTLTISSLEPEDFAVYYCQQRRNWFTFGGGTKVEIKR
Kd [10]: 10 pM
Kd [11]: 87 pM
Kd [12]: 16 pM

B5: ADI-09111 Fab (Fab, V domains shown)
VH: QLQLQESGPGLVKPSETLSLTCTVSGGSISSSSYYWGWIRQPPGKGLEWIGSIYYSGSTYYNPSLKSRVTISVDTSKNQFSLKLSSVTAADTAVYYCARENSGVVPAAGPNWFDPWGQGTLVTVSS
VL: EIVLTQSPATLSLSPGERATLSCRASQSVSSYLAWYQQKPGQAPRLLIYDASNRATGIPARFSGSGSGTDFTLTISSLEPEDFAVYYCQQRRNWFTFGGGTKVEIKR
Kd [10]: 700 pM
Kd [11]: 3500 pM
Kd [12]: 1900 pM

B6: ADI-09112 Fab (Fab, V domains shown)
VH: QLQLQESGPGLVKPSETLSLTCTVSGGSISSSSYYWGWIRQPPGKGLEWIGSIYYSGSTYYNPFLKSRVTISVDTSKNQFSLKLSSVTAADTAVYYCARENSGVVPAAGPNWFGPWGQGTLVTVSS
VL: EIVLTQSPATLSLSPGERATLSCRASQSVSSYLAWYQQKPGQAPRLLIYDASNRATGIPARFSGSGSGTDFTLTISSLEPEDFAVYYCQQRRNWFTFGGGTKVEIKR
Kd [10]: 220 pM
Kd [11]: 1200 pM

B7: ADI-09113 Fab (Fab, V domains shown)
VH: QLQLQESGPGLVKPSETLSLTCTVSGGSVSSSSYYWGWIRQPPGKGLEWIGSAYYSGSTYYNPSLKSRVTISVDTSKNQFSLKLSSVTAADTAVYYCARENSGVVPAAGPNWFDPWGQGTLVTVSS
VL: EIVLTQSPATLSLSPGERATLSCRASQSVSSYLAWYQQKPGQAPRLLIYDASNRATGIPARFSGSGSGTDFTLTISSLEPEDFAVYYCQQRRNWFTFGGGTKVEIKR
Kd [10]: 170 pM
Kd [11]: 760 pM
Kd [12]: 650 pM

B8: ADI-10086 Fab (Fab, V domains shown)
VH: QLQLQESGPGLVKPSETLSLTCTVSGGSIRSSAYYWGWIRQPPGKGLEWIGSINYRGSTYYNPSLKSRVTISVDTSKNQFSLKLSSVTAADTAVYYCARENSGVVPAAGPNWFGPWGQGTLVTVSS
VL: EIVLTQSPATLSLSPGERATLSCRASQSVSSYLAWYQQKPGQAPRLLIYDASNRATGIPARFSGSGSGTDFTLTISSLEPEDFAVYYCQQRRNWFTFGGGTKVEIKR
Kd [10]: 8.6 pM
Kd [11]: 60 pM
Kd [12]: 13 pM

B9: ADI-10087 Fab (Fab, V domains shown)
VH: QLQLQESGPGLVKPSETLSLTCTVSGGSISSASYYWSWIRQPPGKGLEWIGSINYRGSTYYNPSLKSRVTISVDTSKNQFSLKLSSVTAADTAVYYCARENSGVVPAAGPNWFGPWGQGTLVTVSS
VL: EIVLTQSPATLSLSPGERATLSCRASQSVSSYLAWYQQKPGQAPRLLIYDASNRATGIPARFSGSGSGTDFTLTISSLEPEDFAVYYCQQRRNWFTFGGGTKVEIKR
Kd [10]: 5 pM
Kd [11]: 41 pM
Kd [12]: 9.8 pM

B10: ADI-10089 Fab (Fab, V domains shown)
VH: QLQLQESGPGLVKPSETLSLTCTVSGGSIGSSSYYWTWIRQPPGKGLEWIGSINYRGSTYYNPSLKSRVTISVDTSKNQFSLKLSSVTAADTAVYYCARENSGVVPAAGPNWFDPWGQGTLVTVSS
VL: EIVLTQSPATLSLSPGERATLSCRASQSVSSYLAWYQQKPGQAPRLLIYDASNRATGIPARFSGSGSGTDFTLTISSLEPEDFAVYYCQQRRNWFTFGGGTKVEIKR
Kd [10]: 11 pM
Kd [11]: 70 pM
Kd [12]: 10 pM

B11: ADI-10090 Fab (Fab, V domains shown)
VH: QLQLQESGPGLVKPSETLSLTCTVSGGSIWSSSYYWTWIRQPPGKGLEWIGSINYRGSTYYNPSLKSRVTISVDTSKNQFSLKLSSVTAADTAVYYCARENSGVVPAAGPNWFDPWGQGTLVTVSS
VL: EIVLTQSPATLSLSPGERATLSCRASQSVSSYLAWYQQKPGQAPRLLIYDASNRATGIPARFSGSGSGTDFTLTISSLEPEDFAVYYCQQRRNWFTFGGGTKVEIKR
Kd [10]: 17 pM
Kd [11]: 120 pM
Kd [12]: 21 pM
